Measurements reported in PMC3399080.

How the values were obtained:
[1] = target: Recombinant human insulin oxidized by metal-catalyzed oxidation (copper(II)/ascorbate) (human); experiment: SEC; insulin oxidized in 50 mM sodium citrate, pH 3.0, 3 h at room temperature; same column and dissociating mobile phase; UV 276 nm; covalent aggregates only
[2] = target: Recombinant human insulin oxidized by metal-catalyzed oxidation (copper(II)/ascorbate) (human); experiment: SEC; insulin oxidized in 250 mM ammonium bicarbonate, pH 8.0, 3 h at room temperature (ammonia competes for Michael addition); same column and dissociating mobile phase; UV 276 nm; covalent aggregates only
[3] = target: Recombinant human insulin oxidized by metal-catalyzed oxidation (copper(II)/ascorbate) (human); experiment: SEC; insulin oxidized in 50 mM sodium citrate, pH 3.0, then exchanged into 50 mM PB, pH 7.4, and left 12 h at room temperature; same column and dissociating mobile phase; UV 276 nm; covalent aggregates only
[4] = target: Recombinant human insulin oxidized by metal-catalyzed oxidation (copper(II)/ascorbate) (human); experiment: SEC; insulin oxidized in 50 mM PB, pH 7.4, 3 h at room temperature; Insulin HMWP column, mobile phase 1 g/L L-arginine in water/acetonitrile/glacial acetic acid 65:20:15, which dissociates non-covalent aggregates; UV 276 nm; covalent dimers and oligomers only

%Dimer (covalent) [1]: 0.8%
%Dimer (covalent) [2]: 3.9%
%Dimer (covalent) [3]: 9.3%
%HMWO (covalent high-molecular-weight oligomers) [3]: 1.9%
%Dimer (covalent) [4]: 18.8%
%HMWO (covalent high-molecular-weight oligomers) [4]: 6.8%
Substance: Recombinant human insulin oxidized by metal-catalyzed oxidation (copper(II)/ascorbate) (natural protein)
